Residue numbers refer to the chain shown, from its start.
Legend:
Conditions in all cases: tags: R&D Systems; chain copies: 2
[1] = target: T1, NGF (nerve growth factor) (Homo sapiens, UniProt P01138 P01138:122-241); experiment: cell_activity; neurite outgrowth inhibition
Protocol: (§1) The cells (2500 cells per well) were cultured for one day in an RPMI-1640 medium containing 2.5% horse serum and 1.25% fetal bovine serum in a 96 well flat-bottom plate coated with collagen type IV. […] Two days later, the cytoplasm and nuclei were stained using Cellomics Neurite Outgrowth Kit (manufactured by Thermo Scientific), and neurite length per cell was measured by Cellomics ArrayScan VTI (manufactured by Thermo Scientific). With the neurite length per cell obtained by the addition of NGF alone as inhibitory activity 0%, and that of the cell obtained by NGF free culture for 2 days as inhibitory activity 100%, the inhibitory activity of the aptamer was calculated from the neurite length per cell obtained by culturing with the addition of NGF and the aptamer in mixture.

[2] = target: T1, NGF (nerve growth factor); experiment: cell_activity; neurite; TF-1 >0.1
[3] = target: T1, NGF (nerve growth factor); experiment: SPR; more than 40N; high inhibition of receptor binding
[4] = target: T1, NGF (nerve growth factor); experiment: cell_activity; neurite
Protocol: as §1

NT-4 (neurotrophin-4) = target: T2, NT-4 (neurotrophin-4) (Homo sapiens, UniProt P34130 P34130:81-210); experiment: cell_activity; TF-1
T2 sequence: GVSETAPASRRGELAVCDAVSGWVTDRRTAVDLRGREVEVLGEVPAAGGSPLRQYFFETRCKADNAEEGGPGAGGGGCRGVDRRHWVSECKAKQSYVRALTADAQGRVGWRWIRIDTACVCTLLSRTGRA
Excerpt: Using TF-1 cells, whether NGF aptamer inhibits BDNF, NT-3, NT-4 was examined. Human receptor genes (TrkB, TrkC, p75) for respective neurotrophic factors were introduced into TF-1 cells (ATCC Number: CRL-2003), which is a human erythroleukemic cell line, by using a retrovirus vector to give cells that highly express these receptors stably. TF-1 cells introduced with TrkB and p75 were used for the evaluation of inhibitory activity against BDNF, TF-1 cells introduced with TrkC and p75 were used for the evaluation against NT-3, and TF-1 cells introduced with TrkB alone were used for the evaluation against NT-4. These cells were suspended in an RPMI-1640 medium containing 20% fetal bovine serum, and seeded in a white 96 well flat-bottom plate at 1000 cells (50 μL) per well. Thereto was added a mixed solution 50 μL of human BDNF (final concentration 0.074 nM) or NT-3 (final concentration 0.074 nM) or NT-4 (final concentration 0.071 nM) and the aptamer (final concentration 1 μM-0.01 nM), which had been pre-reacted at room temperature for 30 min in a serum-free RPMI-1640 medium, 3 days later, 100 μL of CellTiter-Glo reagent for CellTiter-Glo Luminescent Cell Viability Assay (manufactured by Promega) was added to each well, chemiluminescence was measured by a microplate reader. With the amount of luminescence per well obtained by the addition of BDNF or NT-3 or NT-4 alone and culture of the cells for 3 days as inhibitory activity 0%, and that of the well obtained by culture for 3 days without addition of BDNF or NT-3 or NT-4 as inhibitory activity 100%, the inhibitory activity of the aptamer was calculated from the amount of luminescence per well obtained by culturing with the addition of BDNF or NT-3 or NT-4 and the aptamer in mixture. When the inhibitory activity was 0 or below, ‘0%’ is indicated. The 50% inhibitory concentration (IC₅₀) was determined from the concentrations at two, above and below points sandwiching the 50% inhibitory activity. An IC₅₀ value indicated as “>X” means that the inhibitory activity was not more than 50% when the indicated concentration X was the maximum measured concentration. N.D. means not measured.

[5] = target: T1, NGF (nerve growth factor); experiment: cell_activity; neurite; TF-1 <0.1
[6] = target: T1, NGF (nerve growth factor); experiment: cell_activity; neurite; TF-1 >0.3

T1 sequence (P01138 122-241, one chain of several): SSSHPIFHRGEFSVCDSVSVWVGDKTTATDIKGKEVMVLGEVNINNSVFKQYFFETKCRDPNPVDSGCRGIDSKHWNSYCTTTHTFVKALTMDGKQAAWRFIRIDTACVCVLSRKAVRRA

B1: SEQ ID NO: 82(56) (ssRNA)
RNA: GGGUCCUGGAUAAGAGUUUCCGUCUCGUAUCCUGUUACCC
modifications: 2'-F all C and U; 2'-OMe G1-3,G9,G14,G16,G22,G27; 2'-OH G8,G34; 2'-H A; 5' PEG40GS2; 3' idT
- IC50 [1]: 0.067 nM

Binder: GGGUCCUGGAUAAGAGUUUCCGUCUCGUAUCCUGUUACCC (ssRNA, as 82(25) except dU18) [SEQ ID NO: 82(38)]
- IC50 [2]: 0.295 nM

Binder: GGGUCCUGGAUAAGAGUUUCCGUCUCGUAUCCUGUUACCC (ssRNA, as 82(1) except 2'-OMe U4,C6,U11,C20,C21,C26,U28,U30,C31,C32,U35,C38-40) [SEQ ID NO: 82(19)]
- IC50 [2]: 0.291 nM

Binder: GGGUCCUGGAUAAGAGUUUCCGUCUCGUAUCCUGUUACCC (ssRNA, as 82(25) except 2'-OMe A12) [SEQ ID NO: 82(44)]
- IC50 [2]: 0.097 nM

B2: SEQ ID NO: 82(1) (ssRNA)
RNA: B1 RNA
modifications: 2'-F all C and U; 2'-OMe G1-3,G9,G14,G16,G22,G27; 2'-OH G8,G34; 2'-H A; idT 5' and 3'
- IC50 [1]: 0.7 nM

Binder: GGGUCCUGGAUAAGAGUUUCCGUCUCGUAUCCUGUUACCC (ssRNA, as 82(25) except dU19) [SEQ ID NO: 82(39)]
- IC50 [2]: 0.256 nM

B3: SEQ ID NO: 160 (ssRNA)
RNA: B1 RNA with U17T
modifications: 2'-F C5,U7,U18,U19,C20,C24,U25,U33,U36; dT17; 2'-OH G8,G34; 2'-H A; 2'-OMe all other; idT 5' and 3'
- IC50 [1]: 0.038 nM

Binder: GGGUCCUGGAUAAGAGUUUCCGUCUCGUAUCCUGUTACCC (ssRNA, as 82(1) except dT36) [SEQ ID NO: 159]
- IC50 [2]: 0.264 nM

Binder: GGGUCCUGGAUAAGAGUTUCCGUCUCGUAUCCUGUUACCC (ssRNA, as 82(1) except dT18) [SEQ ID NO: 157]
- IC50 [2]: 0.299 nM

Binder: GGGUCCUGGAUAAGAGUUUCCGUCUCGUAUCCUGUUACCC (ssRNA, as 82(25) except 2'-OMe A13) [SEQ ID NO: 82(43)]
- IC50 [2]: 0.088 nM

B4: SEQ ID NO: 15 (ssRNA)
RNA: GGGAGAACUUCGACCAGAAGUGCAAUACUUUCGCGGCAUAUGUGCAAACCUUGCCACGACUAUGUGCGCAUAC
modifications: 2'-F C and U; 2'-OH G; 2'-H (deoxy) A
- binding result [3]: binds

B5: SEQ ID NO: 16 (ssRNA)
RNA: CGACCAGAAGUGCAAUACUUUCGCGGCAUAUGUGCAAACCUUGCCACGACUAUGUGCGCAUAC
modifications: 2'-F C and U; 2'-OH G; 2'-H (deoxy) A
- binding result [3]: binds

Binder: GGGUCCUGUCGCUAAGUUUCCGUCUUUGCGGCUGUUACCC (ssRNA, 2'-F C and U; 2'-OH G; 2'-H (deoxy) A) [SEQ ID NO: 84]
- IC50 [1]: 0.793 nM

Binder: GGGUCCUGCUGCAUAGUUUCCGUCUUUGUGGCUGUUACCC (ssRNA, 2'-OMe G (G8,G34 2'-OH), dA, 2'-F C/U; 5',3' idT) [SEQ ID NO: 66(1)]
- IC50 [4]: ≤ 1 nM

Binder: GGGUCCUGCUGCGUAGUUUCCGUCUUCGCGGCUGUUACCC (ssRNA, 2'-OMe G (G8,G34 2'-OH), dA, 2'-F C/U; 5',3' idT) [SEQ ID NO: 38(1)]
- IC50 [4]: ≤ 1 nM

B6: SEQ ID NO: 9 (ssRNA)
RNA: GGGAGAACUUCGACCAGAAGUUGGCACAUCCUGCUGCGUAGUUUCCGUCUCCGUGGCUGUUAUGUGCGCAUAC
modifications: 2'-F C and U; 2'-OH G; 2'-H (deoxy) A
- binding result [3]: binds

Binder: GGGCACAUCCUGCUGCGUAGUUUCCGUCUCCGUGGCUGUUAUGUGC (ssRNA, 2'-F C and U; 2'-OH G; 2'-H (deoxy) A) [SEQ ID NO: 11]
- binding result [3]: binds

B7: SEQ ID NO: 10 (ssRNA)
RNA: GGGAGAACUUCGACCAGAAGUUGGCACAUCCUGCUGCGUAGUUUCCGUCUCCGUGGCUGUUAUGUGCG
modifications: 2'-F C and U; 2'-OH G; 2'-H (deoxy) A
- binding result [3]: binds

B8: SEQ ID NO: 14 (ssRNA)
RNA: GGGAGAACUUCGACCAGAAGUGCAAUACUUUCGCGGCAUAUGUGCAAACCUUGCCACGACUAUGUGCGCAUACAUGGA
modifications: 2'-F C and U; 2'-OH G; 2'-H (deoxy) A
- binding result [3]: binds

Binder: GGGUCCUGUGGAAGAGUUUCCGUCUCGUCCACUGUUACCC (ssRNA, as 89(2) plus 2'-OMe U9,G10,G11,C29,C30) [SEQ ID NO: 89(4)]
- IC50 (NT-4 (neurotrophin-4)): 271 nM
- IC50 [5]: < 0.1 nM

Binder: GGGUCCUGUGGAAGAGUUUCCGUCUCGUCCACUGUUACCC (ssRNA, as 89(4) plus 2'-OMe U4,A15,A31,A37; no 5' idT) [SEQ ID NO: 89(5)]
- IC50 [6]: 0.079 nM
